Laboratory results published in doi:10.1101/2020.03.20.000240.

Tests used:
Assay in all cases: SPR
[1] = molecular target: UmuDAb C-terminal domain (CTD) (Acinetobacter baumannii ATCC 17978)
[2] = molecular target: full length UmuDAb transcription repressor from Acinetobacter baumannii (Acinetobacter baumannii ATCC 17978)
[3] = molecular target: full-length UmuD, component of DNA polymerase V, from Acinetobacter baumannii (Acinetobacter baumannii ATCC 17978)

DdrR protein from Acinetobacter baumannii (natural protein)
Kd [1]: 0.106 µM | Kd [2]: 0.0833 µM | Kd [3]: 0.294 µM
